In PMC4251995:

Assays:
[1] = target: Phosphorylated DesR wild type, full-length (Bacillus subtilis) (UniProt O34723); test: SEC
[2] = target: Phosphorylated DesR wild type, full-length (Bacillus subtilis) (UniProt O34723); test: SAXS

- stoichiometry N [1]: 2
- stoichiometry N [2]: 2
Substance: Phosphorylated DesR wild type, full-length (from UniProt O34723 1-199) (natural protein)
